Laboratory results from patent US20100129861.

Biological target: 43S complexes containing 40S subunits and eIFs 2/3/1/1A

B1: DHX29 (purified native DHX29, DExH-box helicase) (protein)
chain: MGGKNKKHKAPAAAVVRAAVSASRAKSAEAGIAGEAQSKKPVSRPATAAAAAAGSREPRVKQGPKIYSFNSTNDSSGPANLDKSILKVVINNKLEQRIIGVINEHKKQNNDKGMISGRLTAKKLQDLYMALQAFSFKTKDIEDAMTNTLLYGGDLHSALDWLCLNLSDDALPEGFSQEFEEQQPKSRPKFQSPQIQATISPPLQPKTKTYEEDPKSKPKKEEKNMEVNMKEWILRYAEQQNEEEKNENSKSLEEEEKFDPNERYLHLAAKLLDAKEQAATFKLEKNKQGQKEAQEKIRKFQREMETLEDHPVFNPAMKISHQQNERKKPPVATEGESALNFNLFEKSAAATEEEKDKKKEPHDVRNFDYTARSWTGKSPKQFLIDWVRKNLPKSPNPSFEKVPVGRYWKCRVRVIKSEDDVLVVCPTILTEDGMQAQHLGATLALYRLVKGQSVHQLLPPTYRDVWLEWSDAEKKREELNKMETNKPRDLFIAKLLNKLKQQQQQQQQHSENKRENSEDPEESWENLVSDEDFSALSLESANVEDLEPVRNLFRKLQSTPKYQKLLKERQQLPVFKHRDSIVETLKRHRVVVVAGETGSGKSTQVPHFLLEDLLLNEWEASKCNIVCTQPRRISAVSLANRVCDELGCENGPGGRNSLCGYQIRMESRACESTRLLYCTTGVLLRKLQEDGLLSNVSHVIVDEVHERSVQSDFLLIILKEILQKRSDLHLILMSATVDSEKFSTYFTHCPILRISGRSYPVEVFHLEDIIEETGFVLEKDSEYCQKFLEEEEEVTINVTSKAGGIKKYQEYIPVQTGAHADLNPFYQKYSSRTQHAILYMNPHKINLDLILELLAYLDKSPQFRNIEGAVLIFLPGLAHIQQLYDLLSNDRRFYSERYKVIALHSILSTQDQAAAFTLPPPGVRKIVLATNIAETGITIPDVVFVIDTGRTKENKYHESSQMSSLVETFVSKASALQRQGRAGRVRDGFCFRMYTRERFEGFMDYSVPEILRVPLEELCLHIMKCNLGSPEDFLSKALDPPQLQVISNAMNLLRKIGACELNEPKLTPLGQHLAALPVNVKIGKMLIFGAIFGCLDPVATLAAVMTEKSPFTTPIGRKDEADLAKSALAMADSDHLTIYNAYLGWKKARQEGGYRSEITYCRRNFLNRTSLLTLEDVKQELIKLVKAAGFSSSTTSTSWEGNRASQTLSFQEIALLKAVLVAGLYDNVGKIIYTKSVDVTEKLACIVETAQGKAQVHPSSVNRDLQTHGWLLYQEKIRYARVYLRETTLITPFPVLLFGGDIEVQHRERLLSIDGWIYFQAPVKIAVIFKQLRVLIDSVLRKKLENPKMSLENDKILQIITELIKTENN
In the case of B1, the NTPase activity is reported as “DHX29's NTPase activity was strongly stimulated by 43S complexes, whereas stimulation by single-stranded RNA was low”.
